We go through three substances from paper PMC10998906.

What all share (experiment): negative-stain EM
For assay [1], the target named is H2/1 GCN4 (SG57 head, PR8 stalk, GCN4-trimerized) (influenza A virus A/Puerto Rico/8/34/Mount Sinai(H1N1) | influenza A virus A/Singapore/1/1957(H2N2)).
Assay [2] addresses H5 GCN4 (IN05 HA, GCN4-trimerized) (influenza A virus A/Indonesia/5/2005(H5N1)).
Assay [3] concerns the target H5/1 GCN4 (IN05 head, PR8 stalk, GCN4-trimerized) (influenza A virus A/Puerto Rico/8/34/Mount Sinai(H1N1) | influenza A virus A/Indonesia/5/2005(H5N1)).

As a reminder, the stoichiometry N is a count of units in the complex or per binding partner. The substance “H2/1 GCN4 (SG57 head, PR8 stalk, GCN4-trimerized) (domain or fragment)” yielded a stoichiometry N in assay [1] of 3.
In assay [2], “H5 GCN4 (IN05 HA, GCN4-trimerized) (domain or fragment)” came in with a stoichiometry N of 3.
In turn, “H5/1 GCN4 (IN05 head, PR8 stalk, GCN4-trimerized) (domain or fragment)” displayed a stoichiometry N in assay [3] of 3.
